Laboratory results published in the supplement of paper PMC9170038.

Test system: MS2 coat protein
Experiment: apparent KD of MS2 coat protein; designed switch direction (-1 OFF switch, 1 ON switch): -1; higher = weaker reporter binding
Method in brief: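 Each step of the titration lasted 0.8–1.5 h at the lowest concentration and 10–20 min at the highest. The protein, SNAP-549-labelled MS2 coat protein, went from 0.7 or 1.5 nM doubling to 3 µM over RNA switches transcribed on Illumina chips by stalled E. coli RNA polymerase. Normalised cluster fluorescence was curve-fitted, and the per-design median over clusters is given as apparent KD.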

[1] = Eterna round: R95, input ligand: FMN 200 uM
[2] = Eterna round: R95, input ligand: microRNA oligo, concentration not stated
[3] = Eterna round: R95, input ligand: none
[4] = input ligand: microRNA oligo, concentration not stated

| Sequence | apparent KD of MS2 coat protein [1] | apparent KD of MS2 coat protein [2] | apparent KD of MS2 coat protein [3] | apparent KD of MS2 coat protein (input ligand: FMN 200 uM) | apparent KD of MS2 coat protein (input ligand: none) | apparent KD of MS2 coat protein [4] |
| --- | --- | --- | --- | --- | --- | --- |
| AAGAAACAUGAGGAUCACCCAUGUGAGGAUAUGAUUAAGAAAAGAAAAGAAAGAAGACUCAGAAGGCACAAAGG [salish99-ex1_r3_069] (puzzle: Exclusion 1) | 55.5 nM | 80.9 nM | 45.5 nM | – | – | – |
| GUGAGUAGUCAGGAUAUGCUGUACAAAAGUACAGCAGAAGGGAUUACAUGAGGAUCACCCAUGUGUACUUCAUG [Omei Ex6 B10] (Eterna round: R97, puzzle: Exclusion 6) | – | – | – | 940 nM | 322 nM | – |
| GCGCAGUCAGGAUAUGCCGCUGGCGAUCACCGUGGGCAAAGGCAGAAGGGACAUGAGGAUCACCCAUGUGGCGC [e4e Mirror Pins #2] (puzzle: Exclusion 4) | – | 39 nM | – | – | – | – |
| GAGUCUCGAAAGGAUAUUUAGGUGUAUGCAGGUAGAGAAGGUUCGACAUGAGGAUCACCCAUGUAAUGGUUUCC [Eternabot (L2) Solution 25] (Eterna round: R97, puzzle: Exclusion 6) | – | – | – | 157 nM | 84 nM | – |
| ACAUGUCAUUGAGGAUAUCGCACACAUGAGGAUCACCCAUGUAAACGGAUGCUCUUUCGUGGGUUCGAGAAGGCGAUGUACAUU [Ex NG2 #96] (Eterna round: R96, puzzle: Exclusion NG 2) | – | – | – | 136 nM | 88 nM | 49 nM |
| GCGUGACAUGAGGAUCACCCAUGUGAGGAUAUCUGGAUACUCUUUAUUUUAGAUAUCCAGAGAAGGCACAUGCU [Ex1-3: 4Z] (puzzle: Exclusion 1) | – | 191 nM | – | – | – | – |
| GUAGAGUCAGGAUAUACGAGAUCGAAAGAUCGGUAGUCCUUACAUGAGGAUCACCCAUGUAGAAGGGACUCUAC [Omei mod 7 to Eli's favorate candidate (ch.parushev)] (Eterna round: R97, puzzle: Exclusion 2) | – | – | – | 118 nM | 15.8 nM | – |
| UAGAUACAUGAGGAUCACCCAUGUGAGGAUAUGAGAAUUAUAUUAAAUGAAUUAAUUUUCAGAAGGCACAAAGG [JR_Ex1_Sub052] (Eterna round: R97, puzzle: Exclusion 1) | – | – | – | 177 nM | 166 nM | – |
| ACUUGCGAUAUGCUCGUCUUAUUUUUGUUGACGUUCUAUACAUGAGGAUCACCCAUGUUUUGUUCCUUGUGCUGGUA [JR_SV3TOV2_Sub072] (puzzle: Sensor v3, turn-off variant 2) | 161 nM | 170 nM | 184 nM | – | – | – |
| AGUGUGUGGCAGGAUAUUCUAAUCGUGAGUAGGGAAGAAGGGUCUACAUGAGGAUCACCCAUGUAAGCGGUUGA [Ex6 #43] (Eterna round: R97, puzzle: Exclusion 6) | – | – | – | 257 nM | 209 nM | – |
| GGGUGACAUGAGGAUCACCCAUGUCAGGAUAUGGGCCCGGGCCCGAAAGGGUUUGGGCCCAGAAGGGACUGCCC [-44.5, -43.5 kcal, 22%A (-3 GC series)] (Eterna round: R97, puzzle: Exclusion 1) | – | – | – | 145 nM | 50.3 nM | – |
| UUUUAACAUGAGGAUCACCCAUGUGAGGAUAUCGAAAUUUAUAUUAAUAUUUUUAAUUCGAGAAGGCACAUUUU [JMF 69] (puzzle: Exclusion 1) | – | 136 nM | – | – | – | – |
| CCCGUGUAAGGAUAUCGUUCACUUGGCAAAAGUCGAGUGGACGAGAAGGUACAUGAGGAUCACCCAUGUACGGG [-32.4, -32 kcal, A 28%] (Eterna round: R97, puzzle: Exclusion 4) | – | – | – | 406 nM | 282 nM | – |
| GAUUGACAUGAGGAUCACCCAUGUGAGGAUAUCGGCCGGACCUUGUUAGCUUCCGUCGCGAGAAGGCGCAUAGG [Exclusion 1 V37] (puzzle: Exclusion 1) | 62.6 nM | 39.9 nM | 33.2 nM | – | – | – |
| AUUUUGUGAGGAUAUUAGUUGUAGAAAAUUGUUAGUAUAGCUGAGAAGGCACAUGAGGAUCACCCAUGUAAAUC [JR_Ex4_Sub042] (Eterna round: R97, puzzle: Exclusion 4) | – | – | – | 91 nM | 19 nM | – |
| AUAAUGUGAGGAUAUCAGUCGUACAGCUGCGGCUGUACGACUGAGAAGGCACAUGAGGAUCACCCAUGUGGUCA [E4/5-A3] (Eterna round: R97, puzzle: Exclusion 4) | – | – | – | 70.7 nM | 672 nM | – |
| UAAGGUGGUACCAUGAACAUGAGGAUCACCCAUGUACCUUAGAAGGAUAUCGCGACGUGUACGCGCGAGAAGGUCUACAACGUA [Eternabot solution 35] (Eterna round: R96, puzzle: Exclusion NG 3) | – | – | – | 162 nM | 77.5 nM | 70.1 nM |
| AAAAAACAAGGAUAUACUAAGGAUGAUUAUCUUAAUUUUUGACAUGAGGAUCACCCAUGUAGAAGGUGUUAAAA [JR_Exclusion2_Sub007] (puzzle: Exclusion 2) | 98.9 nM | 47.5 nM | 41.2 nM | – | – | – |
| GCACGAAGUGUAGGAUAUCUGUGCGAUUAGCUCAGAGAAGGACACAUGAGGAUCACCCAUGUGUUUCACGGAAACGAAACGUGC [Eli exng1 - 054] (Eterna round: R96, puzzle: Exclusion NG 1) | – | – | – | 10.7 nM | 16.2 nM | 9.54 nM |
| AUACCACGAGGAUAUCGUCUAUAAUACAUGAGGAUCACCCAUGUUAUAUCUGUAAUGUUUCGAGAAGGCGUGUGUU [JR_E5_Sub084] (Eterna round: R96, puzzle: Exclusion 5) | – | – | – | 17 nM | 21.3 nM | 15.4 nM |
| UGCGAGUAAGGAUAUUCGCGACCACCCACAAGGGCGGUCGAGAAGAAGGUACUUGAGGAUCACCCAAGUCCUAA [Inraindi] (Eterna round: R97, puzzle: Exclusion 4) | – | – | – | 95.5 nM | 20.2 nM | – |
| AAAUACAAGCAAAGAUCCUACAUGAGGAUCACCCAUGUGCUCGUCUUGUAAAGUACUAUCACGAAAGUGAUAGUACA [Sensor 3, v1 - 16] (puzzle: Sensor v3, turn-off variant 1) | 51.9 nM | 27.5 nM | 70.2 nM | – | – | – |
| AGAUGGCGAGGAUAUACAUGAGGAUCACCCAUGUGAAGAGAAAGAGUGAGGAAGAAAAGUAGAAGGCGCUGUCA [Mat - Exclusion 3 - Mod of Salish D29] (puzzle: Exclusion 3) | 897 nM | 99.7 nM | 88.2 nM | – | – | – |
| AAUACACAUGAGGAUCACCCAUGUUAGGAUAUUCGCGGGAAAGCUGUCAAAACGCCGAGGAGAAGGAACAGGAA [Excls1-X] (puzzle: Exclusion 1) | 40 nM | 33.7 nM | 45.7 nM | – | – | – |
| UCCAUCCCUGUGAGGAUAUCGUCCGUUUUUUGUUCCGAGAAGGCACAUGAGGAUCACCCAUGUUUUUUGUUUUU [JR_BMOE4_Sub077] (puzzle: Brourd's mod of Exclusion 4) | – | 30.2 nM | – | – | – | – |
| GACUGGACAGGAUAUGUUCUUGAGCACUUGAGGAUCACCCAAGUCAUCAAGAACUCAGGCACAGAAGGGUUUAUGA [salish99_ex5_r4_008] (Eterna round: R97, puzzle: Exclusion 5) | – | – | – | 29.6 nM | 13.5 nM | – |
